According to the supplement of paper PMC9732359:
± gives the uncertainty stated by the source.

Test: protein stability index of a GFP-peptide fusion (yeast GPS) (PSI 1-4); higher = more stable; sorted into four equal gates, so the index is relative within each strain
Procedure, shortened: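 Plasmids in a pooled yeast library fused tiled 17-residue yeast protein peptides downstream of GFP and also expressed Cherry. Mid-log cultures grown without leucine were sorted into four equal gates by GFP/Cherry fluorescence ratio. Each gate's plasmids were PCR-amplified and Illumina-sequenced, and reads were matched to strains by barcodes. The protein stability index is derived by multiplying each gate's read frequency by its gate number and summing the results.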

Sequence | protein stability index (doa10∆) | protein stability index (pdr5∆) | protein stability index (san1∆) | protein stability index (ubr1∆)
DPTLTTTTSFTTSEATA [RPN4] | 2.85 ± 0.075 | 2.98 ± 0.067 | 2.58 ± 0.057 | 2.92 ± 0.066
TVHKTFEGNVATKAING [PRP8] | 2.85 ± 0.08 | 2.22 ± 0.062 | 1.85 ± 0.065 | 2.71 ± 0.062
AGRKFKSRRCDDMLYYI [POP4] | 2.96 ± 0.094 | 3.06 ± 0.094 | 3.21 ± 0.084 | 3.04 ± 0.068
MDYHFIFSYLQFTSSLF [RGR1] | 2.08 ± 0.046 | 1.39 ± 0.043 | 1.25 ± 0.076 | 1.21 ± 0.047
VFTMKELAQYMKTNVHT [RGR1] | 2.66 ± 0.1 | 2.84 ± 0.13 | 2.6 ± 0.082 | 2.69 ± 0.057
KYKSGGKFSFSPLQKEE [SSN2] | 1.54 ± 0.072 | 1.43 ± 0.064 | 1.46 ± 0.15 | 1.53 ± 0.047
HESYCLPMDTNLFKINS [YMR129W/POM152] | 1.54 ± 0.055 | 1.72 ± 0.039 | 1.74 ± 0.13 | 1.37 ± 0.067
MLSAHNIIESIANFSRA [YJR042W/NUP85] | 2.31 ± 0.074 | 2.43 ± 0.063 | 2.87 ± 0.048 | 2.48 ± 0.036
CWAVRADVHFLDCDGGF [RRP45] | 2.31 ± 0.2 | 2.65 ± 0.14 | 2.9 ± 0.085 | 2.72 ± 0.064
KEIRAFDKLLNIPRREL [SRB4] | 2.6 ± 0.08 | 2.46 ± 0.07 | 2.73 ± 0.08 | 1.95 ± 0.071
MQANKLDSQETPSTEES [SWI3] | 1.79 ± 0.096 | 2.35 ± 0.073 | 2.39 ± 0.11 | 2.36 ± 0.056
KVLEMKNLKDTASVEKA [YIL149C/MLP2] | 2.95 ± 0.091 | 3.26 ± 0.093 | 3.08 ± 0.098 | 3.21 ± 0.08
DSVENSSNILEDILYYS [SRB8] | 2.92 ± 0.13 | 2.74 ± 0.073 | 2.5 ± 0.058 | 2.72 ± 0.059
LQDELHKVSSQSTNLNR [YCS4] | 2.97 ± 0.061 | 3.06 ± 0.068 | 3.05 ± 0.045 | 2.87 ± 0.053
LVDLKKELAELKVQKLS [RPL35A] | 1.2 ± 0.066 | 1.59 ± 0.097 | 1.46 ± 0.12 | 1.68 ± 0.085
QDYYIIGANIYQSPTIF [MED6] | 2.33 ± 0.056 | 2.42 ± 0.055 | 2.15 ± 0.07 | 2.46 ± 0.029
FKAEKLQIVNQLPANMV [RPC17] | 3.36 ± 0.085 | 3.07 ± 0.068 | 3.03 ± 0.071 | 3.13 ± 0.056
KAPEAEQVLSAAATFPI [RPL13A] | 2.97 ± 0.071 | 2.76 ± 0.075 | 2.96 ± 0.078 | 2.81 ± 0.04
LGAIEQILIFAADTSIV [YJL039C/NUP192] | 1.47 ± 0.09 | 2.02 ± 0.049 | 1.72 ± 0.091 | 2.56 ± 0.099
RFPETMDETQTRAKIGG [RPO21] | 3.17 ± 0.26 | – | 2.69 ± 0.24 | 3.42 ± 0.13
VNNGNIPSQRGTSTTHG [SIR3] | 2.37 ± 0.16 | 2.85 ± 0.088 | 2.78 ± 0.094 | 2.73 ± 0.072
RERQVNEKLADLGLEKE [RPC53] | 3.2 ± 0.14 | 3.4 ± 0.16 | 3.06 ± 0.18 | 3.2 ± 0.24
EESIKIYPLIKPGSTVM [UBP6] | 2.94 ± 0.18 | 3.01 ± 0.093 | – | 2.96 ± 0.17
KLDIISDPESERPAIEF [RPN14] | 2.94 ± 0.045 | 3.05 ± 0.05 | 3.03 ± 0.04 | 3.18 ± 0.039
TVPRIVQLLSKSHNAHV [RPN2] | 1.91 ± 0.056 | 1.69 ± 0.044 | 2.08 ± 0.067 | 1.98 ± 0.048
SIKSKVVDHHVENELLQ [RRP42] | 3.38 ± 0.13 | 3.24 ± 0.2 | 2.82 ± 0.17 | –
VTDLSGKETIARVTGGM [RPS14B] | 3.03 ± 0.087 | 3.09 ± 0.081 | 2.79 ± 0.055 | 2.9 ± 0.061

Sequence | protein stability index (doa10∆) | protein stability index (pdr5∆) | protein stability index (san1∆) | protein stability index (ubr1∆)
TQHEEEEEQDTGESEES [IRR1] | – | 3.29 ± 0.1 | 3.26 ± 0.092 | 3.39 ± 0.15
TLLARAVAHHTDCKFIR [RPT6] | 3.09 ± 0.11 | 3.03 ± 0.076 | 1.86 ± 0.14 | 2.23 ± 0.15
PFKRKMLLVDIIPSRMG [REC8] | 1.81 ± 0.069 | 1.77 ± 0.072 | 2.26 ± 0.11 | 2.15 ± 0.059
SETFLQFYVKRWKRFTI [CDC53] | 2.39 ± 0.1 | 2.74 ± 0.063 | 1.73 ± 0.1 | 2.3 ± 0.074
PKALRFDRLVAGQIPTG [FAS2] | 2.15 ± 0.18 | – | 2.59 ± 0.25 | –
KYVHVSEVGNCSGSGMG [FAS2] | 2.88 ± 0.055 | 3.08 ± 0.058 | 2.92 ± 0.051 | 2.92 ± 0.041
SPFGAYGEAPTSPGFGV [RPO21] | 2.87 ± 0.086 | 3.12 ± 0.052 | 2.98 ± 0.076 | 3.17 ± 0.034
YDLNFKLRETLVKIDDL [SMC1] | 3.05 ± 0.15 | 3.13 ± 0.13 | 3.01 ± 0.13 | 2.68 ± 0.14
KWEQTYKKPTGGIVTVR [FAS1] | 3.07 ± 0.064 | 2.04 ± 0.054 | 2.2 ± 0.1 | 2.37 ± 0.053
LCRNPLTSGLLYSYLIK [YJL039C/NUP192] | 2.07 ± 0.064 | 1.84 ± 0.06 | 1.67 ± 0.088 | 1.53 ± 0.036
PEDPYFNTLVRIMSTRC [DIS3] | 2.38 ± 0.093 | 2.72 ± 0.072 | 2.56 ± 0.052 | 1.92 ± 0.049
EGVEYLREYLNLPEHIV [RPS10A] | 3.31 ± 0.081 | 3.32 ± 0.078 | 3.2 ± 0.072 | 3 ± 0.087
AVSEKAGHQTSAESWGT [RPL4A] | 2.24 ± 0.086 | 2.03 ± 0.1 | 1.71 ± 0.11 | 1.86 ± 0.088
FAAIPEQGIELEHIDSK [FAS2] | 3.17 ± 0.16 | 2.85 ± 0.21 | 3.39 ± 0.084 | 3.41 ± 0.1
MHSYFIFKDLVTVFLFM [COB] | 1.47 ± 0.04 | 1.32 ± 0.037 | 1.36 ± 0.056 | 1.34 ± 0.025
CEINYYEILLKILITYG [SRB8] | 1.2 ± 0.047 | 1.54 ± 0.065 | 1.17 ± 0.1 | 1.2 ± 0.076
QKYTKEMIDSHIKEASE [SNF2] | 2.93 ± 0.06 | 2.88 ± 0.054 | 2.94 ± 0.051 | 3.02 ± 0.037
EGNAQLVAIFGGQGNTD [FAS1] | 1.45 ± 0.067 | 1.94 ± 0.094 | 2.13 ± 0.13 | 1.05 ± 0.091
LQRQQRKSKLNLDNLQK [POP4] | 2.72 ± 0.077 | 3.22 ± 0.2 | 3.09 ± 0.064 | 2.92 ± 0.15
AVNWQDKQGWTPLFHAL [NAS6] | 2.07 ± 0.16 | 2.1 ± 0.18 | 2.4 ± 0.092 | –
VRLGEEDMIRSVFDATS [RPN1] | – | – | 3.12 ± 0.23 | –
SQPNNTPSFSFGKTTAN [YLR335W/NUP2] | 2.76 ± 0.054 | 2.84 ± 0.051 | 2.78 ± 0.058 | 2.87 ± 0.048
SASPHLAPNMQLNGNET [SNF2] | 3.23 ± 0.041 | 2.96 ± 0.043 | 3.1 ± 0.025 | 3.256 ± 0.032
ETVFNYRLMIKRLNFSF [GRR1] | 1.84 ± 0.099 | 1.3 ± 0.068 | 1.27 ± 0.12 | 1.31 ± 0.074
SFNMAQIPQQLYQSLTP [SNF5] | 2.16 ± 0.067 | 2.35 ± 0.072 | 2.14 ± 0.054 | 2.12 ± 0.047
PKVPVSAAATPSLNKTI [GAL11] | 2.5 ± 0.039 | 2.77 ± 0.033 | 2.67 ± 0.035 | 2.63 ± 0.036
